Reference: patent publication US20220298218A1 (ANTAG THERAPEUTICS, published 2022)
*1 amine or outer side, *2 acyl side, *3 side chain or, on linkers, in order; H or OH if unused. Where no end group is shown, it is not given here. Side-chain parts run from the residue outwards. The star is where a group is joined. C18 diacid = O=C(O)CCCCCCCCCCCCCCCCC(=O)*; C16 diacid = O=C(O)CCCCCCCCCCCCCCC(=O)*; γGlu = O=C(O)[C@H](CCC(=O)[*:2])N[*:1]; AEEA = NCCOCCOCC(=O)O

T1: human GIP receptor (human, UniProt P48546 22-466)
T1 sequence (looked up): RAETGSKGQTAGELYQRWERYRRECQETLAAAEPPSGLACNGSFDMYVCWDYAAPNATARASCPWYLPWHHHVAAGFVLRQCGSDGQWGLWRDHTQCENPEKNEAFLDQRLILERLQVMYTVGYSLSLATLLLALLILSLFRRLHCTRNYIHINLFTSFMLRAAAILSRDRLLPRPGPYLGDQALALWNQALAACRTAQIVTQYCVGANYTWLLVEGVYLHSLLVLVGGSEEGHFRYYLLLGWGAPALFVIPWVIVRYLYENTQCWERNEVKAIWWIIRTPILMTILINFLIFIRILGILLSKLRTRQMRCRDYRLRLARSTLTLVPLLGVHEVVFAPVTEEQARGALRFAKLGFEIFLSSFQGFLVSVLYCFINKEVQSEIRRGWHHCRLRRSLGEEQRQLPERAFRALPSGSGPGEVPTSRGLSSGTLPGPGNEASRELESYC

B1: AT424 (peptide)
peptide: SGTFISDYSIAMDRIK([AEEA-AEEA-AEEA-γGlu-C16 diacid])QQDFVNWLLAQRGRRNDW-OH
modifications: N-terminus assumed
SMILES: CC[C@H](C)[C@H](NC(=O)[C@H](CO)NC(=O)[C@H](Cc1ccc(O)cc1)NC(=O)[C@H](CC(=O)O)NC(=O)[C@H](CO)NC(=O)[C@@H](NC(=O)[C@H](Cc1ccccc1)NC(=O)[C@@H](NC(=O)CNC(=O)[C@@H](N)CO)[C@@H](C)O)[C@@H](C)CC)C(=O)N[C@@H](C)C(=O)N[C@@H](CCSC)C(=O)N[C@@H](CC(=O)O)C(=O)N[C@@H](CCCNC(=N)N)C(=O)N[C@H](C(=O)N[C@@H](CCCCNC(=O)COCCOCCNC(=O)COCCOCCNC(=O)COCCOCCNC(=O)CC[C@H](NC(=O)CCCCCCCCCCCCCCC(=O)O)C(=O)O)C(=O)N[C@@H](CCC(N)=O)C(=O)N[C@@H](CCC(N)=O)C(=O)N[C@@H](CC(=O)O)C(=O)N[C@@H](Cc1ccccc1)C(=O)N[C@H](C(=O)N[C@@H](CC(N)=O)C(=O)N[C@@H](Cc1c[nH]c2ccccc12)C(=O)N[C@@H](CC(C)C)C(=O)N[C@@H](CC(C)C)C(=O)N[C@@H](C)C(=O)N[C@@H](CCC(N)=O)C(=O)N[C@@H](CCCNC(=N)N)C(=O)NCC(=O)N[C@@H](CCCNC(=N)N)C(=O)N[C@@H](CCCNC(=N)N)C(=O)N[C@@H](CC(N)=O)C(=O)N[C@@H](CC(=O)O)C(=O)N[C@@H](Cc1c[nH]c2ccccc12)C(=O)O)C(C)C)[C@@H](C)CC
B2: AT466 (peptide)
peptide: FISDYSIAMDKIK(C16 diacid)QQDFVNWLLAQKGKKNDWKHNITQ-OH
modifications: N-terminus assumed
SMILES: CC[C@H](C)[C@H](NC(=O)[C@H](CO)NC(=O)[C@H](Cc1ccc(O)cc1)NC(=O)[C@H](CC(=O)O)NC(=O)[C@H](CO)NC(=O)[C@@H](NC(=O)[C@@H](N)Cc1ccccc1)[C@@H](C)CC)C(=O)N[C@@H](C)C(=O)N[C@@H](CCSC)C(=O)N[C@@H](CC(=O)O)C(=O)N[C@@H](CCCCN)C(=O)N[C@H](C(=O)N[C@@H](CCCCNC(=O)CCCCCCCCCCCCCCC(=O)O)C(=O)N[C@@H](CCC(N)=O)C(=O)N[C@@H](CCC(N)=O)C(=O)N[C@@H](CC(=O)O)C(=O)N[C@@H](Cc1ccccc1)C(=O)N[C@H](C(=O)N[C@@H](CC(N)=O)C(=O)N[C@@H](Cc1c[nH]c2ccccc12)C(=O)N[C@@H](CC(C)C)C(=O)N[C@@H](CC(C)C)C(=O)N[C@@H](C)C(=O)N[C@@H](CCC(N)=O)C(=O)N[C@@H](CCCCN)C(=O)NCC(=O)N[C@@H](CCCCN)C(=O)N[C@@H](CCCCN)C(=O)N[C@@H](CC(N)=O)C(=O)N[C@@H](CC(=O)O)C(=O)N[C@@H](Cc1c[nH]c2ccccc12)C(=O)N[C@@H](CCCCN)C(=O)N[C@@H](Cc1c[nH]cn1)C(=O)N[C@@H](CC(N)=O)C(=O)N[C@H](C(=O)N[C@H](C(=O)N[C@@H](CCC(N)=O)C(=O)O)[C@@H](C)O)[C@@H](C)CC)C(C)C)[C@@H](C)CC
B3: AT416 (peptide)
peptide: EGTFISDYSIAMDKIK([AEEA-AEEA-AEEA-γGlu-C16 diacid])QQDFVNWLLAQKGKKNDW-OH
modifications: N-terminus assumed
SMILES: CC[C@H](C)[C@H](NC(=O)[C@H](CO)NC(=O)[C@H](Cc1ccc(O)cc1)NC(=O)[C@H](CC(=O)O)NC(=O)[C@H](CO)NC(=O)[C@@H](NC(=O)[C@H](Cc1ccccc1)NC(=O)[C@@H](NC(=O)CNC(=O)[C@@H](N)CCC(=O)O)[C@@H](C)O)[C@@H](C)CC)C(=O)N[C@@H](C)C(=O)N[C@@H](CCSC)C(=O)N[C@@H](CC(=O)O)C(=O)N[C@@H](CCCCN)C(=O)N[C@H](C(=O)N[C@@H](CCCCNC(=O)COCCOCCNC(=O)COCCOCCNC(=O)COCCOCCNC(=O)CC[C@H](NC(=O)CCCCCCCCCCCCCCC(=O)O)C(=O)O)C(=O)N[C@@H](CCC(N)=O)C(=O)N[C@@H](CCC(N)=O)C(=O)N[C@@H](CC(=O)O)C(=O)N[C@@H](Cc1ccccc1)C(=O)N[C@H](C(=O)N[C@@H](CC(N)=O)C(=O)N[C@@H](Cc1c[nH]c2ccccc12)C(=O)N[C@@H](CC(C)C)C(=O)N[C@@H](CC(C)C)C(=O)N[C@@H](C)C(=O)N[C@@H](CCC(N)=O)C(=O)N[C@@H](CCCCN)C(=O)NCC(=O)N[C@@H](CCCCN)C(=O)N[C@@H](CCCCN)C(=O)N[C@@H](CC(N)=O)C(=O)N[C@@H](CC(=O)O)C(=O)N[C@@H](Cc1c[nH]c2ccccc12)C(=O)O)C(C)C)[C@@H](C)CC
B4: AT432 (peptide)
peptide: EGTFISDYSIAMDKIK([AEEA-AEEA-AEEA-γGlu-C16 diacid])QQDFVNWLLAQKGPSSGAPPPS-OH
modifications: N-terminus assumed
SMILES: CC[C@H](C)[C@H](NC(=O)[C@H](CO)NC(=O)[C@H](Cc1ccc(O)cc1)NC(=O)[C@H](CC(=O)O)NC(=O)[C@H](CO)NC(=O)[C@@H](NC(=O)[C@H](Cc1ccccc1)NC(=O)[C@@H](NC(=O)CNC(=O)[C@@H](N)CCC(=O)O)[C@@H](C)O)[C@@H](C)CC)C(=O)N[C@@H](C)C(=O)N[C@@H](CCSC)C(=O)N[C@@H](CC(=O)O)C(=O)N[C@@H](CCCCN)C(=O)N[C@H](C(=O)N[C@@H](CCCCNC(=O)COCCOCCNC(=O)COCCOCCNC(=O)COCCOCCNC(=O)CC[C@H](NC(=O)CCCCCCCCCCCCCCC(=O)O)C(=O)O)C(=O)N[C@@H](CCC(N)=O)C(=O)N[C@@H](CCC(N)=O)C(=O)N[C@@H](CC(=O)O)C(=O)N[C@@H](Cc1ccccc1)C(=O)N[C@H](C(=O)N[C@@H](CC(N)=O)C(=O)N[C@@H](Cc1c[nH]c2ccccc12)C(=O)N[C@@H](CC(C)C)C(=O)N[C@@H](CC(C)C)C(=O)N[C@@H](C)C(=O)N[C@@H](CCC(N)=O)C(=O)N[C@@H](CCCCN)C(=O)NCC(=O)N1CCC[C@H]1C(=O)N[C@@H](CO)C(=O)N[C@@H](CO)C(=O)NCC(=O)N[C@@H](C)C(=O)N1CCC[C@H]1C(=O)N1CCC[C@H]1C(=O)N1CCC[C@H]1C(=O)N[C@@H](CO)C(=O)O)C(C)C)[C@@H](C)CC
B5: AT426 (peptide)
peptide: SGTFISDYSIAMDRIK([AEEA-AEEA-AEEA-γGlu-C18 diacid])QQDFVNWLLAQRGRRNDW-OH
modifications: N-terminus assumed
SMILES: CC[C@H](C)[C@H](NC(=O)[C@H](CO)NC(=O)[C@H](Cc1ccc(O)cc1)NC(=O)[C@H](CC(=O)O)NC(=O)[C@H](CO)NC(=O)[C@@H](NC(=O)[C@H](Cc1ccccc1)NC(=O)[C@@H](NC(=O)CNC(=O)[C@@H](N)CO)[C@@H](C)O)[C@@H](C)CC)C(=O)N[C@@H](C)C(=O)N[C@@H](CCSC)C(=O)N[C@@H](CC(=O)O)C(=O)N[C@@H](CCCNC(=N)N)C(=O)N[C@H](C(=O)N[C@@H](CCCCNC(=O)COCCOCCNC(=O)COCCOCCNC(=O)COCCOCCNC(=O)CC[C@H](NC(=O)CCCCCCCCCCCCCCCCC(=O)O)C(=O)O)C(=O)N[C@@H](CCC(N)=O)C(=O)N[C@@H](CCC(N)=O)C(=O)N[C@@H](CC(=O)O)C(=O)N[C@@H](Cc1ccccc1)C(=O)N[C@H](C(=O)N[C@@H](CC(N)=O)C(=O)N[C@@H](Cc1c[nH]c2ccccc12)C(=O)N[C@@H](CC(C)C)C(=O)N[C@@H](CC(C)C)C(=O)N[C@@H](C)C(=O)N[C@@H](CCC(N)=O)C(=O)N[C@@H](CCCNC(=N)N)C(=O)NCC(=O)N[C@@H](CCCNC(=N)N)C(=O)N[C@@H](CCCNC(=N)N)C(=O)N[C@@H](CC(N)=O)C(=O)N[C@@H](CC(=O)O)C(=O)N[C@@H](Cc1c[nH]c2ccccc12)C(=O)O)C(C)C)[C@@H](C)CC
B6: AT465 (peptide)
peptide: FISDYSIAMDKIK(C16 diacid)QQDFVNWLLAQKGKKNDWKHN-OH
modifications: N-terminus assumed
SMILES: CC[C@H](C)[C@H](NC(=O)[C@H](CO)NC(=O)[C@H](Cc1ccc(O)cc1)NC(=O)[C@H](CC(=O)O)NC(=O)[C@H](CO)NC(=O)[C@@H](NC(=O)[C@@H](N)Cc1ccccc1)[C@@H](C)CC)C(=O)N[C@@H](C)C(=O)N[C@@H](CCSC)C(=O)N[C@@H](CC(=O)O)C(=O)N[C@@H](CCCCN)C(=O)N[C@H](C(=O)N[C@@H](CCCCNC(=O)CCCCCCCCCCCCCCC(=O)O)C(=O)N[C@@H](CCC(N)=O)C(=O)N[C@@H](CCC(N)=O)C(=O)N[C@@H](CC(=O)O)C(=O)N[C@@H](Cc1ccccc1)C(=O)N[C@H](C(=O)N[C@@H](CC(N)=O)C(=O)N[C@@H](Cc1c[nH]c2ccccc12)C(=O)N[C@@H](CC(C)C)C(=O)N[C@@H](CC(C)C)C(=O)N[C@@H](C)C(=O)N[C@@H](CCC(N)=O)C(=O)N[C@@H](CCCCN)C(=O)NCC(=O)N[C@@H](CCCCN)C(=O)N[C@@H](CCCCN)C(=O)N[C@@H](CC(N)=O)C(=O)N[C@@H](CC(=O)O)C(=O)N[C@@H](Cc1c[nH]c2ccccc12)C(=O)N[C@@H](CCCCN)C(=O)N[C@@H](Cc1c[nH]cn1)C(=O)N[C@@H](CC(N)=O)C(=O)O)C(C)C)[C@@H](C)CC

target: T1, human GIP receptor; experiment: cell-based or functional assay

| Binder | cAMP antagonism | cAMP antagonism % inhib | cAMP antagonism log |
| --- | --- | --- | --- |
| B1 | 35 nM | 100% | -7.5 log M |
| B2 | 16 nM | 90% | -7.8 log M |
| B3 | 52 nM | 90% | -7.3 log M |
| B4 | 19 nM | 92% | -7.7 log M |
| B5 | 28 nM | 80% | -7.6 log M |
| B6 | 28 nM | 86% | -7.6 log M |
